Data published in publication PMC2691817 (Nucleic Acids Research, 2009).

Experiments:
SEC = biological target: the molecule itself; assay: SEC
SeqAΔ(41-59)-A25R = biological target: T1, SeqAΔ(41-59)-A25R (Escherichia coli, UniProt P0AFY8 1-181, A25R;del41-59); assay: EMSA
T1 sequence: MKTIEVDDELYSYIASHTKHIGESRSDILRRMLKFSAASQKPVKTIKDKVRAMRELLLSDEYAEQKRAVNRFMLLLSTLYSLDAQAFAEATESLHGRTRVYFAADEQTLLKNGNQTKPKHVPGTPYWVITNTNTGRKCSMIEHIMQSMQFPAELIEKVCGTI

B1: SeqAΔ(41–59)-A25R (natural protein, E. coli, UniProt P0AFY8 1-181, looked up)
chain: T1 sequence
SEC
  stoichiometry N: 2

B2: SeqA-A25R (natural protein, E. coli, UniProt P0AFY8 1-181, looked up)
chain: MKTIEVDDELYSYIASHTKHIGESRSDILRRMLKFSAASQPAAPVTKEVRVASPAIVEAKPVKTIKDKVRAMRELLLSDEYAEQKRAVNRFMLLLSTLYSLDAQAFAEATESLHGRTRVYFAADEQTLLKNGNQTKPKHVPGTPYWVITNTNTGRKCSMIEHIMQSMQFPAELIEKVCGTI
SEC
  binding result: binds

B3: hemimethylated tandem GATC duplex (crystallization oligonucleotide) (dsDNA)
DNA 1: GAGTCGATCGGCGGGATCCTTA
DNA 2: TCTAAGGATCCCGCCGATCGAC
modifications: N6-methyladenine at positions 7 and 16 of strand 1; strand 2 unmethylated
SeqAΔ(41-59)-A25R
  Kd: ~90 nM
